Measurements: patent publication US20250163119A1, “COMPOUNDS FOR THE TREATMENT OF DIABETES OR OBESITY” (Eli Lilly and Company, priority 2023, published 2025)
*1 amine or outer side, *2 acyl side, *3 side chain or, on linkers, in order; H or OH if unused. Where no end group is shown, it is not given here. Side-chain parts run from the residue outwards. [ ]: non-standard residue; d: D form. The star is where a group is joined. C20 diacid = O=C(O)CCCCCCCCCCCCCCCCCCC(=O)*; γGlu = O=C(O)[C@H](CCC(=O)[*:2])N[*:1]; αMeL = CC(C)C[C@](C)(N)C(=O)O; AEEA = NCCOCCOCC(=O)O; Aib = CC(C)(N)C(=O)O; Ahx = NCCCCCC(=O)O

Molecular target: T1, human corticotropin-releasing hormone receptor 1 (CRHR1) (human, UniProt P34998 24-415)
T1 sequence (looked up): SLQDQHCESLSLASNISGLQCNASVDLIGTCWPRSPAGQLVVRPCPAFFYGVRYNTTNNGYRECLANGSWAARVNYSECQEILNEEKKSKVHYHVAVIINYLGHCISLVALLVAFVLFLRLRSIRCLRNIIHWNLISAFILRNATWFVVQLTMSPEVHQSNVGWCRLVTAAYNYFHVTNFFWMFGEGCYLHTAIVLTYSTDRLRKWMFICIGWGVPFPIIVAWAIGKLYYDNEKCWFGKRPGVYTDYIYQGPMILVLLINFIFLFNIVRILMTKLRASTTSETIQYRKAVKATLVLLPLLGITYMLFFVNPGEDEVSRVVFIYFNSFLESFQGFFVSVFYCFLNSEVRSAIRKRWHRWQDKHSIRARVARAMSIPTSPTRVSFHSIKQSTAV
Assay: cell-based or functional assay

B1: polypeptide comprising SEQ ID NO:35 (peptide)
peptide: Ac-IVTS[αMeL]D[dV]PTG[αMeL]LQIKLEQERAEKARQQAKENTEILAQV-NH2
modifications: not fully specified (residue 29)
hCRHR1 cAMP EC50: 3000 nM

B2: polypeptide comprising SEQ ID NO:37 (peptide)
peptide: Ac-IVTS[αMeL]D[dV]PTG[αMeL]LQIKLEQERAEKARQQAKENTEILAQV-NH2
modifications: not fully specified (residue 29)
hCRHR1 cAMP EC50: 1700 nM

B3: polypeptide comprising SEQ ID NO:39 (peptide)
peptide: Ac-IVTS[αMeL]D[dV]PTG[αMeL]LQIKLEQERAEKARQQAKENTEILAQV-NH2
modifications: not fully specified (residue 29)
hCRHR1 cAMP EC50: 3700 nM

B4: polypeptide comprising SEQ ID NO:45 (peptide)
peptide: [γGlu]GPSIVTS[αMeL]D[dV]PI[Aib][αMeL]LQIKLEQERAEKARQQAK([AEEA-AEEA-γGlu-C20 diacid])ENTEILAQV-NH2
hCRHR1 cAMP EC50: 3700 nM

B5: polypeptide comprising SEQ ID NO:43 (peptide)
peptide: Ac-IVTS[αMeL]D[dV]PTG[αMeL]LQIKLEQERAEKARQQAKENTEILAQV-NH2
modifications: not fully specified (residue 29)
hCRHR1 cAMP EC50: > 10000 nM

B6: polypeptide comprising SEQ ID NO:34 (peptide)
peptide: Ac-IVTS[αMeL]D[dV]PTG[αMeL]LQIKLEQERAEKARQQAKENTEILAQV-NH2
modifications: not fully specified (residue 29)
hCRHR1 cAMP EC50: > 10000 nM

B7: polypeptide comprising SEQ ID NO:4 (peptide)
peptide: Ac-GSPSIVTS[αMeL]DVPT[Aib][αMeL]LQKILEQERAEKARQQAK([Ahx-AEEA-γGlu-C20 diacid])EAAEILAQV-NH2
hCRHR1 cAMP EC50: > 10000 nM

B8: polypeptide comprising SEQ ID NO:42 (peptide)
peptide: Ac-IVTS[αMeL]D[dV]PI[Aib][αMeL]LQIKLEQERAEKARQQAK([AEEA-AEEA-γGlu-C20 diacid])ENTEILAQV-NH2
SMILES: CC[C@H](C)[C@H](NC(C)=O)C(=O)N[C@H](C(=O)N[C@H](C(=O)N[C@@H](CO)C(=O)N[C@@](C)(CC(C)C)C(=O)N[C@@H](CC(=O)O)C(=O)N[C@@H](C(=O)N1CCC[C@H]1C(=O)N[C@H](C(=O)NC(C)(C)C(=O)N[C@@](C)(CC(C)C)C(=O)N[C@@H](CC(C)C)C(=O)N[C@@H](CCC(N)=O)C(=O)N[C@H](C(=O)N[C@@H](CCCCN)C(=O)N[C@@H](CC(C)C)C(=O)N[C@@H](CCC(=O)O)C(=O)N[C@@H](CCC(N)=O)C(=O)N[C@@H](CCC(=O)O)C(=O)N[C@@H](CCCNC(=N)N)C(=O)N[C@@H](C)C(=O)N[C@@H](CCC(=O)O)C(=O)N[C@@H](CCCCN)C(=O)N[C@@H](C)C(=O)N[C@@H](CCCNC(=N)N)C(=O)N[C@@H](CCC(N)=O)C(=O)N[C@@H](CCC(N)=O)C(=O)N[C@@H](C)C(=O)N[C@@H](CCCCNC(=O)COCCOCCNC(=O)COCCOCCNC(=O)CC[C@H](NC(=O)CCCCCCCCCCCCCCCCCCC(=O)O)C(=O)O)C(=O)N[C@@H](CCC(=O)O)C(=O)N[C@@H](CC(N)=O)C(=O)N[C@H](C(=O)N[C@@H](CCC(=O)O)C(=O)N[C@H](C(=O)N[C@@H](CC(C)C)C(=O)N[C@@H](C)C(=O)N[C@@H](CCC(N)=O)C(=O)N[C@H](C(N)=O)C(C)C)[C@@H](C)CC)[C@@H](C)O)[C@@H](C)CC)[C@@H](C)CC)C(C)C)[C@@H](C)O)C(C)C
hCRHR1 cAMP EC50: 2300 nM

B9: polypeptide comprising SEQ ID NO:40 (peptide)
peptide: Ac-IVTS[αMeL]D[dV]PTG[αMeL]LQIKLEQERAEKARQQAKENTEILAQV-NH2
modifications: not fully specified (residue 29)
hCRHR1 cAMP EC50: > 10000 nM

B10: polypeptide comprising SEQ ID NO:44 (peptide)
peptide: Ac-IVTS[αMeL]D[dV]PTG[αMeL]LQIKLEQERAEKARQQAKENTEILAQV-NH2
modifications: not fully specified (residue 29)
hCRHR1 cAMP EC50: > 10000 nM

B11: polypeptide comprising SEQ ID NO:36 (peptide)
peptide: Ac-IVTS[αMeL]D[dV]PTG[αMeL]LQIKLEQERAEKARQQAKENTEILAQV-NH2
modifications: not fully specified (residue 29)
hCRHR1 cAMP EC50: 1800 nM

B12: polypeptide comprising SEQ ID NO:38 (peptide)
peptide: Ac-IVTS[αMeL]D[dV]PTG[αMeL]LQIKLEQERAEKARQQAKENTEILAQV-NH2
modifications: not fully specified (residue 29)
hCRHR1 cAMP EC50: 1100 nM

B13: polypeptide comprising SEQ ID NO:33 (peptide)
peptide: Ac-IVTS[αMeL]D[dV]PTG[αMeL]LQIKLEQERAEKARQQAKENTEILAQV-NH2
modifications: not fully specified (residue 29)
hCRHR1 cAMP EC50: 1100 nM

B14: polypeptide comprising SEQ ID NO:41 (peptide)
peptide: Ac-IVTS[αMeL]D[dV]PT[Aib][αMeL]LQIKLEQERAEKARQQAK([AEEA-AEEA-γGlu-C20 diacid])ENTEILAQV-NH2
SMILES: CC[C@H](C)[C@H](NC(C)=O)C(=O)N[C@H](C(=O)N[C@H](C(=O)N[C@@H](CO)C(=O)N[C@@](C)(CC(C)C)C(=O)N[C@@H](CC(=O)O)C(=O)N[C@@H](C(=O)N1CCC[C@H]1C(=O)N[C@H](C(=O)NC(C)(C)C(=O)N[C@@](C)(CC(C)C)C(=O)N[C@@H](CC(C)C)C(=O)N[C@@H](CCC(N)=O)C(=O)N[C@H](C(=O)N[C@@H](CCCCN)C(=O)N[C@@H](CC(C)C)C(=O)N[C@@H](CCC(=O)O)C(=O)N[C@@H](CCC(N)=O)C(=O)N[C@@H](CCC(=O)O)C(=O)N[C@@H](CCCNC(=N)N)C(=O)N[C@@H](C)C(=O)N[C@@H](CCC(=O)O)C(=O)N[C@@H](CCCCN)C(=O)N[C@@H](C)C(=O)N[C@@H](CCCNC(=N)N)C(=O)N[C@@H](CCC(N)=O)C(=O)N[C@@H](CCC(N)=O)C(=O)N[C@@H](C)C(=O)N[C@@H](CCCCNC(=O)COCCOCCNC(=O)COCCOCCNC(=O)CC[C@H](NC(=O)CCCCCCCCCCCCCCCCCCC(=O)O)C(=O)O)C(=O)N[C@@H](CCC(=O)O)C(=O)N[C@@H](CC(N)=O)C(=O)N[C@H](C(=O)N[C@@H](CCC(=O)O)C(=O)N[C@H](C(=O)N[C@@H](CC(C)C)C(=O)N[C@@H](C)C(=O)N[C@@H](CCC(N)=O)C(=O)N[C@H](C(N)=O)C(C)C)[C@@H](C)CC)[C@@H](C)O)[C@@H](C)CC)[C@@H](C)O)C(C)C)[C@@H](C)O)C(C)C
hCRHR1 cAMP EC50: 3700 nM
